How the values were obtained:
CXCR1-U2OS = biological target: T1, CXCR1-U2OS (Homo sapiens, UniProt P25024); assay: Flow cytometry binding to CXCR1 expressing cells; conditions: CXCR1-U2OS cells, cell culture supernatant containing expressed IgG, anti-Human Fc detection
T1 construct: host or cells: U2OS-derived CXCR1 cell line, purchased
T1 sequence (P25024 1-350): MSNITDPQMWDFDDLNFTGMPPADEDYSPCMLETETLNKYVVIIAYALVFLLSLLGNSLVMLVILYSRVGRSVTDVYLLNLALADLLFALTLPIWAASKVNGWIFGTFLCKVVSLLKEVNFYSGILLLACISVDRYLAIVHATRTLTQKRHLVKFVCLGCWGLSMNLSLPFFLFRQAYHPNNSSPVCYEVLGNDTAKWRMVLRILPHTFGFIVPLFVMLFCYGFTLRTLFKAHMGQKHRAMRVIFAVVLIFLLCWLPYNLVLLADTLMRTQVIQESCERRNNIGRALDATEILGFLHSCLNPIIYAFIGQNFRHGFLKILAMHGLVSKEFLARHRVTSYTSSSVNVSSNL
Description: Briefly, a cell line expressing functionally validated CXCR1 derived from U2OS cells was obtained from DiscoveRx and cultured per manufacturer's instructions (Cat#93-0226C3, DiscoveRx Corporation, Freemont, Calif.). The parental cell line U20S was obtained from ATCC and cultured under the same conditions as the CXCR1 cells. Cell culture supernatants from Example 2 above were then tested for binding to cells by flow cytometry. The adherent U20S or CXCR1-U20S cells were dissociated with Accutase (Innovative Cell Technologies, Inc., San Diego, Calif.), neutralized with an equal volume of media containing 10% serum, centrifuged at 1000 g, and resuspended in PBS with 2% BSA. Next, cells were dispensed into microtiter plates to achieve between 30,000 to 300,000 cells per well, centrifuged again, and resuspended in cell culture supernatant containing expressed IgG, or a dilution of IgG-containing cell culture supernatant. A fluorescent-conjugated anti-Human Fc antibody was used to detect binding of the expressedBLV1H12-IL8 fusion proteins to cells.

Human mPB CD34+ cells = assay: Proliferative activity on human granulocyte progenitors (flow cytometry); format: cell-based; conditions: for Number of CD45RA− CD41−: 7 days
Description: Human mPB CD34^+ cells were purchased from AllCells. Cells were resuspended in HSC expansion medium (StemSpan SFEM, StemCell Technologies) supplemented with 1× antibiotics and the following recombinant human cytokines thrombopoietin, IL6, Flt3 ligand, and stem cell factor (100 ng/mL, R & D Systems), then plated in 96-well plates (1000 cells per well), with varied concentrations of BLV1H12-bGCSF fusion antibodies. Cells were cultured for 7 days at 37° C. in a 5% CO2 incubator, then analyzed by flow cytometry to measure cell number and expression of CD45ra and CD41. Cells were stained in staining medium (HBSS supplemented with 2% FBS and 2 mM EDTA) at 4° C. for 1 h with PECy7 anti-CD45ra and eFluor 450 anti-CD41 (eBiosciences), then washed with staining medium and analyzed. Multicolor analysis for cell phenotyping was performed on a LSR II flow cytometer (Becton Dickinson). FIGS. 10A-10E and Tables 9-10 show the human granulocyte progenitor cell proliferative activities of the Ab-GCSF fusion antibodies.

Mouse NFS-60 cells = assay: Proliferation assay on mouse NFS-60 cells (AlamarBlue); format: cell-based; conditions: for F.I. (AlamarBlue fluorescence at 595 nm, cell viability): 72 hours
Description: Mouse NFS-60 cells were obtained from American Type Culture Collection (ATCC), VA, and cultured in RPMI-1640 medium supplemented with 10% fetal bovine serum (FBS), 0.05 mM 2-mercapoethanol and 62 ng/ml human macrophage colony stimulating factor (M-CSF). For proliferation assay, mouse NFS-60 cells were washed three times with RPMI-1640 medium and resuspended in RPMI-1640 medium with 10% FBS and 0.05 mM 2-mercapoethanol at a density of 1.5×10^5 cells/ml. In 96-well plates, 100 μl of cell suspension was added into each well, followed by the addition of varied concentrations of bGCSF, BLV1H12 antibody, and the immunoglobulin constructs described herein, Equal volume of PBS buffer was added into the control wells. The plates were incubated at 37° C. in a 5% CO2 incubator for 72 hours. Cells were then treated with AlamarBlue (Invitrogen) ( 1/10 volume of cell suspension) for 4 hours at 37° C. Fluorescence at 595 nm for each well was read to indicate the cell viability.

GLP-1 receptor (GLP-1R) = biological target: T2, GLP-1 receptor (GLP-1R) (Homo sapiens, UniProt P43220); assay: GLP-1R activation, cAMP responsive luciferase reporter in HEK293 cells; format: cell-based; conditions: HEK293 cells expressing GLP-1R, 24 h
T2 construct: expressed in transfected cells; host or cells: HEK293 cells expressing surface GLP-1R and a cAMP responsive luciferase reporter
T2 sequence (P43220 24-463, species assumed): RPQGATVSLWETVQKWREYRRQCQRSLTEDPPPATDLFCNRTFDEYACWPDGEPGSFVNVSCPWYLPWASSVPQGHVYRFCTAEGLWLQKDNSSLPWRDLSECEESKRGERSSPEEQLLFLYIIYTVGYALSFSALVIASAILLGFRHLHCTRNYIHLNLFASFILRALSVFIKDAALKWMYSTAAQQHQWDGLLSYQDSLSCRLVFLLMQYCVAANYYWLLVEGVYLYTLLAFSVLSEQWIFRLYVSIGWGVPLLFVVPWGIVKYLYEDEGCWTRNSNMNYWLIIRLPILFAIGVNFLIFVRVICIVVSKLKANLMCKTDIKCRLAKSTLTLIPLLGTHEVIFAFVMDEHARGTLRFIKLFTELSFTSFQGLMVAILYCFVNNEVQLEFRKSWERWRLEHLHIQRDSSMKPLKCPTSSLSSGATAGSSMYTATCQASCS
Description: HEK293 cells expressing surface GLP-1R and cAMP responsive luciferase reporter gene were seeded in 384 well plates at a density of 5000 cells per well. […] Subsequently, luciferase assay was performed using One-Glo luciferase reagent according manufacture's instruction (Promega).
HEK293 cells expressing surface GLP-1R and cAMP responsive luciferase reporter gene were seeded in 384 well plates at a density of 5000 cells per well. After 24 h incubation at 37° C. with 5% CO2, cells were treated with various concentrations of peptides and BLV1H12-GLP-1 clip fusion proteins and incubated for another 24 h. Subsequently, luciferase assay was performed using One-Glo luciferase reagent according manufacture's instruction (Promega).

mice neutrophils = assay: Neutrophils counts in mice; format: in vivo; conditions: mice blood, 10th day post-injection, neutrophils among white blood cells
Description: On the 10th day after injection of BLV1H12-bGCSF fusion antibodies into mice for PK study, blood samples were drawn from the mice and stained using the Diff Quick Staining Kit (Thermo Fisher Scientific, IL). Neutrophils and white blood cells were counted under microscope and the percentages of neutrophils were analyzed. FIGS. 12A-12B and Table 12 show proliferative activities of BLV1H12-bGCSF fusion antibodies on mice neutrophils that are blood stained and counted at the 10th day post-injection.

B1: Ab: bovine BLV1H12 antibody with ultralong CDR3, no inserted polypeptide; heavy chain SEQ ID NO: 24, light chain SEQ ID NO: 23 (antibody)
heavy: QVQLRESGPSLVKPSQTLSLTCTASGFSLSDKAVGWVRQAPGKALEWLGSIDTGGNTGYNPGLKSRLSITKDNSKSQVSLSVSSVTTEDSATYYCTSVHQETKKYQSCPDGYRERSDCSNRPACGTSDCCRVSVFGNCLTTLPVSYSYTYNYEWHVDVWGQGLLVTVSS
light: QAVLNQPSSVSGSLGQRVSITCSGSSSNVGNGYVSWYQLIPGSAPRTLIYGDTSRASGVPDRFSGSRSGNTATLTISSLQAEDEADYFCASAEDSSSNAVFGSGTTLTVLGQPKSPPSVTLFPPSTEELNGNKATLVCLISDFYPGSVTVVWKADGSTITRNVETTRASKQSNSKYAASSYLSLTSSDWKSKGSYSCEVTHEGSTVTKTVKPSECS
In the case of B1, the “Median Arbitrary Fluorescence Units (AFU)” value (CXCR1-U2OS) is reported as 4 AFU, the “human granulocyte progenitor cell proliferative activity” value (Human mPB CD34+ cells) is reported as “lack of proliferative activity” and the “Number of CD45RA− CD41−” value (Human mPB CD34+ cells; 0.28959 ng/mL) is reported as 3666. For the same molecule, the “Number of CD45RA− CD41−” value (Human mPB CD34+ cells; 0.86877 ng/mL) was 3839, the “Number of CD45RA− CD41−” value (Human mPB CD34+ cells; 2.60631 ng/mL) was 3852 and the “Number of CD45RA− CD41−” value (Human mPB CD34+ cells; 23.45679 ng/mL) was 3519. For the same molecule, the “Number of CD45RA− CD41−” value (Human mPB CD34+ cells; 70.37037 ng/mL) was 3541, the “Number of CD45RA− CD41−” value (Human mPB CD34+ cells; 211.11111 ng/mL) was 3606 and the “Number of CD45RA− CD41−” value (Human mPB CD34+ cells; 5700 ng/mL) was 4100. The “proliferative activity on mouse NFS-60 cells” value (Mouse NFS-60 cells) was “lack of proliferative activity”, the “F.I. (AlamarBlue fluorescence at 595 nm, cell viability)” value (Mouse NFS-60 cells; 0.45725 ng/mL) was 1040 and the “F.I. (AlamarBlue fluorescence at 595 nm, cell viability)” value (Mouse NFS-60 cells; 1.37174 ng/mL) was 1010. For the same molecule, the “F.I. (AlamarBlue fluorescence at 595 nm, cell viability)” value (Mouse NFS-60 cells; 4.11523 ng/mL) was 983.3, the “F.I. (AlamarBlue fluorescence at 595 nm, cell viability)” value (Mouse NFS-60 cells; 12.34568 ng/mL) was 971.8 and the “F.I. (AlamarBlue fluorescence at 595 nm, cell viability)” value (Mouse NFS-60 cells; 37.03704 ng/mL) was 960.5. The “F.I. (AlamarBlue fluorescence at 595 nm, cell viability)” value (Mouse NFS-60 cells; 111.11111 ng/mL) was 991.83, the “F.I. (AlamarBlue fluorescence at 595 nm, cell viability)” value (Mouse NFS-60 cells; 333.33333 ng/mL) was 964.798 and the “RLU (luciferase reporter)” value (GLP-1 receptor (GLP-1R); 1.26953 nM) was 5200. The “RLU (luciferase reporter)” value (GLP-1 receptor (GLP-1R); 2.53906 nM) was 5000, the “RLU (luciferase reporter)” value (GLP-1 receptor (GLP-1R); 5.07813 nM) was 5600 and the “RLU (luciferase reporter)” value (GLP-1 receptor (GLP-1R); 10.15625 nM) was 5500. The “RLU (luciferase reporter)” value (GLP-1 receptor (GLP-1R); 20.3125 nM) was 5380, the “RLU (luciferase reporter)” value (GLP-1 receptor (GLP-1R); 40.625 nM) was 4600 and the “RLU (luciferase reporter)” value (GLP-1 receptor (GLP-1R); 81.25 nM) was 6140. The “RLU (luciferase reporter)” value (GLP-1 receptor (GLP-1R); 162.5 nM) was 5760, the “RLU (luciferase reporter)” value (GLP-1 receptor (GLP-1R); 325 nM) was 5600 and the “RLU (luciferase reporter)” value (GLP-1 receptor (GLP-1R); 650 nM) was 5800. The “RLU (luciferase reporter)” value (GLP-1 receptor (GLP-1R); 1300 nM) was 14000 and the “Percentage of Neutrophil” value (mice neutrophils) was 18.81.

Reference: patent publication US20140050720A1, “ULTRALONG COMPLEMENTARITY DETERMINING REGIONS AND USES THEREOF” (THE SCRIPPS RESEARCH INSTITUTE, priority 2012, published 2014)
